The target in experiment [1] is F-actin (actin purified from chicken breast muscle) (chicken) (UniProt P68139). Briefly: co-sedimentation.
For experiment [2] the target is unchanged. Briefly: co-sedimentation. This is another data set of the same source.

Read-outs that look alike come from different tables or passages of the source.

Regarding “N-ethylmaleimide (NEM) modified skeletal muscle myosin subfragment 1 (S1) (domain or fragment)”, the percent of NEM-S1 left in the supernatant (not bound) in experiment [1] and in experiment [2] was 20% in each case.
